From paper PMC10847504

Target: CNOT1 of the CCR4-NOT complex, endogenous
Experiment: GFP-trap pull-down, Western blot quantification
Details: lentivirally transduced neurons, read off a plot
[1] = NMDA 3 min, 10 min incubation after NMDA washout, parent: est. 1.4
[2] = vehicle (no NMDA) 3 min, 10 min incubation after washout, parent: est. 0.94

Substance	ratio to parent [1]	ratio to parent [2]
GFP-Ago2(WT) (from UniProt Q9UKV8) S387A	0.81	0.75
GFP-Ago2(WT) (from UniProt Q9UKV8) S387D	1.3	1.3
